We go through one substance from article PMC10442075.

Assay [1] concerns the target catalytic subunit of mouse PKA (mouse) (UniProt P05132).
The target is the same in assay [2]. The source holds these as a separate data set.

Chain of unphosphorylated GSK3β (Glycogen Synthase Kinase 3β) (P49841 whole entry): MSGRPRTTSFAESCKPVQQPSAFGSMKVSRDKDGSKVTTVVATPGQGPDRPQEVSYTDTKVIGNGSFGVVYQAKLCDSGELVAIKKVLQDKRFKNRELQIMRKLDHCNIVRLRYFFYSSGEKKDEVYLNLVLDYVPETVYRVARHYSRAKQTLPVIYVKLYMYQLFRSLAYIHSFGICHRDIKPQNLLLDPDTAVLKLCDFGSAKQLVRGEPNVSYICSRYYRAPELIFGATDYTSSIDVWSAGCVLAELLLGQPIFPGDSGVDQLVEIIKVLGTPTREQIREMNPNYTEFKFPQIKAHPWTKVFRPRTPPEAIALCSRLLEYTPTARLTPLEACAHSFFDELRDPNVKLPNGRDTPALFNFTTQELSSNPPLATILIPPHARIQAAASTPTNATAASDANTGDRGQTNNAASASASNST

In turn, “unphosphorylated GSK3β (Glycogen Synthase Kinase 3β) (from UniProt P49841 1-420) (enzyme)” displayed a fold increase in KM for PKA phosphorylation of GSK3β at Ser9 (20 nM PKA) on addition of 500 nM full-length Axin in assay [1] of 4 fold. This substance also returned a fold increase in KM for PKA phosphorylation of GSK3β at Ser9 on addition of the Axin (381-407) peptide in assay [2] of 7 fold.
